Measurements published in US9441262B2, “MASP-2, a complement fixing enzyme, and uses for it” (Helion Biotech ApS, priority 1997, dated 2016).

B1: MASP-2: mannan-binding lectin associated serine protease-2, polypeptide of SEQ ID NO:2 (protein, listed as Homo sapiens)
chain: MRLLTLLGLLCGSVATPLGPKWPEPVFGRLASPGFPGEYANDQERRWTLTAPPGYRLRLYFTHFDLELSHLCEYDFVKLSSGAKVLATLCGQESTDTERAPGKDTFYSLGSSLDITFRSDYSNEKPFTGFEAFYAAEDIDECQVAPGEAPTCDHHCHNHLGGFYCSCRAGYVLHRNKRTCSALCSGQVFTQRSGELSSPEYPRPYPKLSSCTYSISLEEGFSVILDFVESFDVETHPETLCPYEFLKIQTDREEHGPFCGKTLPHRIETKSNTVTITFVTDESGDHTGWKIHYTSTAQPCPYPMAPPNGHVSPVQAKYILKDSFSIFCETGYELLQGHLPLKSFTAVCQKDGSWDRPMPACSIVDCGPPDDLPSGRVEYITGPGVTTYKAVIQYSCEETFYTMKVNDGKYVCEADGFWTSSKGEKSLPVCEPVCGLSARTTGGRIYGGQKAKPGDFPWQVLILGGTTAAGALLYDNWVLTAAHAVYEQKHDASALDIRMGTLKRLSPHYTQAWSEAVFIHEGYTHDAGFDNDIALIKLNNKVVINSNITPICLPRKEAESFMRTDDIGTASGWGLTQRGFLARNLMYVDIPIVDHQKCTAAYEKPPYPRGSVTANMLCAGLESGGKDSCRGDSGGALVFLDSETERWFVGGIVSWGSMNCGEAGQYGVYTKVINYIPWIENIISDF
B2: MASP-1: MBP-associated serine protease, similar in structure to Clr and Cls (protein)
chain: HTVELNNMFGQIQSPGYPDSYPSDSEVTWNITVPDGFRIKLYFMHFNLESSYLCEYDYVKVETEDQVLATFCGRETTDTEQTPGQEVVLSPGSFMSITFRSDFSNEERFTGFDAHYMAVDVDECKEREDEELSCDHYCHNYIGGYYCSCRFGYILHTDNRTCRVECSDNLFTQRTGVITSPDFPNPYPKSSECLYTIELEEGFMVNLQFEDIFDIEDHPEVPCPYDYIKIKVGPKVLGPFCGEKAPEPISTQSHSVLILFHSDNSGENRGWRLSYRAAGNEPELQPPVHGKIEPSQAKYFFKDQVLVSCDTGYKVLKDNVEMDTFQIECLKDGTWSNKIPTCKIVDCRAPGELEHGLITFSTRNNLTTYKSEIKYSCQEPYYKMLNNNTGIYTCSAQGVWMNKVLGRSLPTCLPVCGLPKFSRKLMARIFNGRPAQKGTTPWIAMLSHLNGQPFCGGSLLGSSWIVTAAHCLHQSLDPKDPTLRDSDLLSPSDFKIILGKHWRLRSDENEQHLGVKHTTLHPKYDPNTFENDVALVELLESPVLNAFVMPICLPEGPQQEGAMVIVSGWGKQFLQRFPETLMEIEIPIVDHSTCQKAYAPLKKKVTRDMICAGEKEGGKDACSGDSGGPMVTLNRERGQWYLVGTVSWGDDCGKKDRYGVYSYIHHNKDWIQRVTGVRN

Test system: C4
Experiment: C4 converting activity on Western blot of MBL/MASP preparation (C4b deposition from human serum)
Format: biochemical
Conditions: blot incubated with human serum at 37° C., detection with anti-C4 antibody
Method: The C4 activating potentials of MASP-1 and MASP-2, and Clr and Cls, were compared. This was accomplished by separating a C1 preparation and an MBL/MASP preparation by SDS-PAGE followed by Western blotting. The blot was examined for C4 converting activity by incubation with human serum at 37° C., followed by detection of deposited C4b using anti-C4 antibodies.
C1 was purified by incubating IgG-coupled Sepharose beads with human serum at 4° C. The beads were washed and incubated at 37° C. for 30 minutes for activation of Clr and Cls. The beads were suspended in non-reducing sample buffer and, without boiling, subjected to SDS-PAGE, followed by blotting in the absence of SDS. A similar blot was made of an MBL preparation produced in the absence of enzyme inhibitors (The State Serum Institute, Copenhagen). Strips of the blots were incubated for 30 minutes at 37° C. with 1.10 (v/v) human MBL-deficient serum, depleted of Clq by fractionation on Biorex 70. The blots were developed with biotinylated F(ab)2 anti-C4 antibody followed by peroxidase-labelled streptavidin and luminescence reagent. Parallel blots were treated with a serine protease inhibitor (aminoethylbenzenesulfonyl fluoride), which was also present during incubation with serum. Other strips were directly developed with antibodies.

Row | Molecule | C4 deposition at the position of the band
1 | B1 | C4 was deposited
2 | B2 | no C4 deposition was observed
